The record followed here is US20090232730A1, “METHOD OF PRODUCING IMMUNOLIPOSOMES AND COMPOSITIONS THEREOF” (IMMUNE DISEASE INSTITUTE, INC., priority 2006, published 2009).

{P} = phosphate

One series deals with K562 mock cells. Nature of the series: MTT cytotoxicity assay. The series is classed as cell-based, human. The note with it: MMC formulations. The protocol: K562 cells (either K562 mock cells or K562 Mac-1 cells, stably transfected with Mac-1 integrin) were grown in 1×RPMI supplemented with 10% FBS. Exponentially growing cells were seeded at 2.5×10^5/ml in 24-well plates and either left untreated or treated with graded dosages of free mitomycin (MMC) or equivalent doses of MMC formulated in liposomes. The treatment media was selected from the following MMC formulations: (i) the test system, MMC-loaded tHA-CBRM1/29, (ii) MMC-loaded ULV-HA, (iii) free MMC, (iv) free MMC dissolved in a suspension of empty tHA-CBRM1/29 and (v) free MMC dissolved in a suspension of empty ULV-HA. In addition, there were 3 drug-free controls, consisting of: (vi) no addition (i.e., only the serum-supplemented growth medium), (vii) empty tHA-CBRM1/29 and (viii) empty ULV. In all formulations, the solvent was serum-supplemented cell growth medium. Cells were washed twice with Hepes-buffered saline (HBS) then re-incubated with drug-free media for additional 48 hours. Cells were spun down and re-suspended in 0.5 ml of MTT containing medium (0.5 mg/ml), and incubated at 37° C. for 1 h. […] After 5 min at room temperature, samples were spun down and 250-μl aliquots were used for absorbance measurements. Cell viability was measured as the difference in the absorbance 550 and 620 nm. […] Data are expressed as a percent of the control healthy growing cells.

The subject of another series is CD4. Kind of series: CD4 silencing in human primary CD4+ cells by flow cytometry. Type of series: cell-based. The note with it: formulated in immunomicelles, 30 pmol-1000 pmol. Here is the method:
Human neutrophils or lymphocytes were isolated from freshly drawn blood as described (Carman et al. J. Immunology, 171 (2003) 6135-6144). CD4 blasts were generated by isolating CD4+ T cells from peripheral blood lymphocytes of normal donors by immunomagnetic beads (Miltenyi Biotech) as previously reported (Novina et al. Nature Med. 2002; 8(7): 681-6) and culturing them in RPMI 1640 containing 10% FCS for 3 days in the presence of 4 μg/mL phytohemagglutinin (PHA), then expend the cells with the same media (without PHA) but with IL-2 at 10 ng/mL for 3 more days.
siRNA transfections were preformed with different formulations of siRNA targeted against human CD4, siRNA-luciferase, or siRNA-cy3. As a positive control we used Fugene 6 and ExGen 500 (PEI) transfection reagents. Cells were seeded in 24 or 96 well plates at a density of 5000−2×10^5 cells/well. […]
(In general: A flow cytometer gives signals particle by particle.)

Series [1] has as its target integrin Mac-1 (αMβ2) (human) (UniProt P11215). Nature of the series: flow cytometry on K562 cells expressing Mac-1; free antibody after lyophilization and reconstitution.
The target is the same in series [2]. Nature of the series: flow cytometry on K562 cells expressing Mac-1; free antibody before lyophilization.
Series [3] has the same target. Nature of the series: flow cytometry on K562 cells expressing Mac-1; carrier after lyophilization and reconstitution (no cryoprotectant).
Series [4] shares this target. Kind of series: flow cytometry on K562 cells expressing Mac-1; carrier before lyophilization.
Series [5] has the same target. Nature of the series: cell-based or functional assay.
For series [6] the target is unchanged. Kind of series: flow cytometry on K562 cells expressing Mac-1; carrier after lyophilization and reconstitution.

For the compound `CO[C@@]12[C@H](COC(N)=O)C3=C(C(=O)C(C)=C(N)C3=O)N1C[C@@H]1N[C@@H]12` [free MMC, mitomycin C], the cell survival result with K562 mock cells is given as “no significant changes in the cell survival”.
On to “CD4-siRNA: siRNA targeted against human CD4, sense 5′-P.GAUCAAGAGACUCCUCAGUUU-3′, antisense 5′-P.ACUGAGGAGUCUCUUGAUCUU-3′ (RNA, 5' {P}, backbone not given here)”, for which, in the series with CD4, the “plateau of CD4 silencing dose response curve” value was determined as 500 pmol.
Turning to CBRM1/29-cy3 (antibody), the MFI in series [1] turned out to be 73; in series [2] it was 82.
Turning to ULV-CBRM1/29-cy3 (antibody), the values for the mean fluorescence intensity in series [3] and in series [4] were 5.6 and 175, respectively.
In series [5], tHA-CBRM1/29-cy3 (antibody) showed an IC50 (MTT cytotoxicity assay, MMC entrapped in the carrier, K562 cells expressing Mac-1) of 1750 nM and a fold difference of IC50 against ULV-HA (no antibody), MTT cytotoxicity assay on K562 cells expressing Mac-1 of 100 fold. Moreover, in series [4], the MFI came out at 161. The MFI in series [6] is 172.
